B1: GST-SKAP [not stated] / GFP-Kif2b [human] (parent)
chain 1: MAAPEAPPLDRVFRTTWLSTECDSHPLPPSYRKFLFETQAADLAGGTTVAAGNLLNESEKDCGQDRRAPGVQPCRLVTMTSVVKTVYSLQPPSALSGGQPADTQTRATSKSLLPVRSKEVDVSKQLHSGGPENDVTKITKLRRENGQMKATDTATRRNVRKGYKPLSKQKSEEELKDKNQLLEAVNKQLHQKLTETQGELKDLTQKVELLEKFRDNCLAILESKGLDPALGSETLASRQESTTDHMDSMLLLETLQEELKLFNETAKKQMEELQALKVKLEMKEERVRFLEQQTLCNNQVNDLTTALKEMEQLLEM
chain 2: MASQFCLPESPCLSPLKPLKPHFGDIQEGIYVAIQRSDKRIHLAVVTEINRENYWVTVEWVEKAVKKGKKIDLETILLLNPALDSAEHPMPPPPLSPLALAPSSAIRDQRTATKWVAMIPQKNQTASGDSLDVRVPSKPCLMKQKKSPCLWEIQKLQEQREKRRRLQQEIRARRALDVNTRNPNYEIMHMIEEYRRHLDSSKISVLEPPQEHRICVCVRKRPLNQRETTLKDLDIITVPSDNVVMVHESKQKVDLTRYLQNQTFCFDHAFDDKASNELVYQFTAQPLVESIFRKGMATCFAYGQTGSGKTYTMGGDFSGTAQDCSKGIYALVAQDVFLLLRNSTYEKLDLKVYGTFFEIYGGKVYDLLNWKKKLQVLEDGNQQIQVVGLQEKEVCCVEEVLNLVEIGNSCRTSRQTPVNAHSSRSHAVFQIILKSGRIMHGKFSLVDLAGNERGADTTKASRKRQLEGAEINKSLLALKECILALGQNKPHTPFRASKLTLVLRDSFIGQNSSTCMIATISPGMTSCENTLNTLRYANRVKKLNVDVRPYHRGHYPIGHEAPRMLKSHIGNSEMSLQRDEFIKIPYVQSEEQKEIEEVETLPTLLGKDTTISGKGSSQWLENIQERAGGVHHDIDFCIARSLSILEQKIDALTEIQKKLKLLLADLHVKSKVE

Variants of: B1
Experiment: GST pull-down, anti-GFP blot quantified
Conditions: with GFP-Kif2b [human]; GFP-Kif2b from HEK293T cell lysates; parent: 1; read off a plot

Variant | ratio to parent
chain 1 S232E S237E T294E | 1.2
chain 1 S232A S237A T294A | 0.7
